Assay results taken from patent US20160090416A1 (NUMAB, published 2016).

target: T1, human CD3ε expressed on the cell surface of T cells (Jurkat clone E6-1; human CD8+ T cells) (human, UniProt P07766 23-207); test: cell-based or functional assay
T1 sequence (P07766 23-207): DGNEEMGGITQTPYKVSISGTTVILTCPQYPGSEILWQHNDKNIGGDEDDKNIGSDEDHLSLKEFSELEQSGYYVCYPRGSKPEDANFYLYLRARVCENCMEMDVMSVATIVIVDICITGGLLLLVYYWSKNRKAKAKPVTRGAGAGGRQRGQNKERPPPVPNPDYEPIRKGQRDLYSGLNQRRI

Fold increase in CD69 expression [MFI normalized to neg. ctrl.], 1.25 µg/ml anti-CD3 IgG, cross-linked, Jurkat cells, 24 h	Fold increase in CD69 expression [MFI normalized to neg. ctrl.], 5 µg/ml anti-CD3 IgG, cross-linked, Jurkat cells, 24 h	Fold increase in CD69 expression [MFI normalized to neg. ctrl.], 20 µg/ml anti-CD3 IgG, cross-linked, Jurkat cells, 24 h	Molecule
2.6 fold	4.2 fold	6.2 fold	clone-10 (antibody, V domains shown) VH: QSLEESGGRLVTPGTPLTLTCTVSGFPLSSFAMLWVRQAPGKGLEWIGMIMRAHNMYYASWAKGRFTISKTSTTVDLEITSPTTEDTATYFCARRHYNTYGYPIAIGDLWGPGTLVTVSS VL: AQVLTQTPSSVSAAVGGTATISCQSNENIYSNNRLSWFQQKAGQPPNQLIYSASSLASGVPSRFKGSGSGTQFTLTISDLECDDAATYYCQGEFSCSSADCFTFGGGTEVVVKG
2.7 fold	5.1 fold	5.3 fold	clone-06 (antibody, V domains shown) VH: QSVEESGGRLVTPGTPLTLTCTVSGFPLSSYAMIWVRQAPGKGLEWIGMILRAGNIYYASWVKGRVTISKTSTTVDLKITSPTTEDTATYFCARRHYNREGYPIGIGDLWGPGTLVTVSS VL: AQVLTQTPSSVSAAVGGTVTISCQSSESVYNNKRLSWFQQKPGQPPKQLIYTASSLASGVPSRFKGSGSGTQFTLTISDLECDDAATYYCQGEFTCSNADCFTFGGGTEVVVKG
2.6 fold	3.5 fold	7.8 fold	clone-04 (antibody, V domains shown) VH: QSLEESGGRLVKPDETLTLTCTVSGFPLSSYAMGWFRQAPGKGLEWIGMILRSDNTYYASWAKGRFTISKTSTTVDLKITSPTTEDTATYFCARRHYNASGNPIAIGDLWGPGTLVTVSS VL: AQVLTQTPSSVSAAVGGTVTINCQSSQSVYNNNRLSWFQQKPGQPPKLLIYTTSSLASGVPSRFKGSGSGTEFTLTISDLECADAATYYCQGEFSCSRADCFNFGGGTEVVVKG

The remaining lines, values behind:

Molecule	Fold increase in CD69 expression [MFI normalized to neg. ctrl.], 1.25 µg/ml anti-CD3 IgG, cross-linked, Jurkat cells, 24 h	Fold increase in CD69 expression [MFI normalized to neg. ctrl.], 5 µg/ml anti-CD3 IgG, cross-linked, Jurkat cells, 24 h	Fold increase in CD69 expression [MFI normalized to neg. ctrl.], 20 µg/ml anti-CD3 IgG, cross-linked, Jurkat cells, 24 h
clone-02 (antibody, V domains shown) VH: QSLEESGGRLVTPGTPLTLTCTVSGFPLSAYAMIWVRQAPGKGLEWIGMIIRSGTVYYANWAKGRFTISKTSTTVDLKITSPTTEDTATYFCARRHYNADGYPIGIGDLWGPGTLVTVSS VL: AQVLTQTPSSVSAVVGGTVTISCQSSESVYSNNRLSWFQQKPGQPPKLLIYSASTLASGVPSRFKGSGSGTQFTLTITDLECDDAATYFCQGEFSCSSVDCFSFGGGTEVVVKG	3.3 fold	4.6 fold	7.4 fold
clone-03 (antibody, V domains shown) VH: QSLEESGGRLVTPGTPLTLTCTVSGFPLNRYAMLWVRQAPGKGLEWIGLITRADKKYYASWAKGRFTISKTSTTVDLEITGPTTEDTATYFCARRHYNTDGYPIAIGDLWGPGTLVTVSS VL: AQVLTQTPSSVSAAVGGTVTISCQSNENIYSNNRLSWFQQKPGQPPNQLIYSASSLASGVPSRFKGSGSGTQFTLTISDLECDDAATYYCQGEFNCNSADCFTFGGGTEVVVKG	2.6 fold	4.6 fold	6.6 fold

target: T2, human heterodimeric single-chain CD3εγ extracellular domain (human, UniProt P07766 23-126; P09693 23-116); test: SPR (MASS-1), human scCD3εγ ECD immobilized, scDb injected
T2 construct: extracellular domain; Produced in-house; single-chain protein of the extracellular domains of CD3ε and CD3γ joined by a flexible linker; also called scCD3γε; human CD3ge
T2 sequence (P07766 23-126, chain 1 of 2): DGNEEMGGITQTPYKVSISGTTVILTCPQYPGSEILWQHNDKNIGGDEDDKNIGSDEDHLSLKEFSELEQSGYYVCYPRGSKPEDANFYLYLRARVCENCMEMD
T2 sequence (P09693 23-116, chain 2 of 2): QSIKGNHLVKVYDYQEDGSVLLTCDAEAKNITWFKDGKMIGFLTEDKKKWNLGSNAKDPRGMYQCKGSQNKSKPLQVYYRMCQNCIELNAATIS

Kd	Molecule
123 nM	Construct 3 (anti-CD3×anti-IL5R scDb comprising the humanized variable domain of clone-03) (bispecific antibody) DIQMTQSPSSLSASVGDRVTITCQASQNIYSNLAWYQQKPGKAPKLLIYRASTLASGVPSRFSGSGSGTDFTLTISSLQPEDFATYYCQSNYGINYYGAAFGQGTKLTVLGGGGGSEVQLVESGGGLVQPGGSLRLSCAVSGFPLNRYAMLWVRQAPGKGLEWIGLITRADKKYYASWAKGRFTISKDNSKNTVYLQMNSLRAEDTAVYYCARRHYNTDGYPIAIGDLWGQGTLVTVSSGGGGSGGGGSGGGGSGGGGSDIQMTQSPSSLSASVGDRVTISCQSNENIYSNNRLSWYQQKPGKAPKLLIYSASSLASGVPSRFSGSGSGTDFTLTISDLEPEDFATYYCQGEFNCNSADCFTFGQGTKLTVLGGGGGSEVQLVESGGGLVQPGGSLRLSCAASGFSLSSYDMTWVRQAPGKGLEWIGIIYVSGSAYYASWAKGRFTISRDNSKNTVYLQMNSLRAEDTAVYYCARINYGLDLWGQGTLVTVSS
11.5 nM	Construct 1 (anti-CD3×anti-IL5R scDb comprising the humanized variable domain of clone-06) (bispecific antibody) DIQMTQSPSSLSASVGDRVTITCQASQNIYSNLAWYQQKPGKAPKLLIYRASTLASGVPSRFSGSGSGTDFTLTISSLQPEDFATYYCQSNYGINYYGAAFGQGTKLTVLGGGGGSEVQLVESGGGLVQPGGSLRLSCAASGFPLSSYAMIWVRQAPGKGLEWIGMILRAGNIYYASWVKGRFTISRDNSKNTVYLQMNSLRAEDTAVYYCARRHYNREGYPIGIGDLWGQGTLVTVSSGGGGSGGGGSGGGGSGGGGSDIQMTQSPSSLSASVGDRVTITCQSSESVYNNKRLSWYQQKPGKAPKLLIYTASSLASGVPSRFSGSGSGTDFTLTISSLQPEDFATYYCQGEFTCSNADCFTFGQGTKLTVLGGGGGSEVQLVESGGGLVQPGGSLRLSCAASGFSLSSYDMTWVRQAPGKGLEWIGIIYVSGSAYYASWAKGRFTISRDNSKNTVYLQMNSLRAEDTAVYYCARINYGLDLWGQGTLVTVSS
29.6 nM	Construct 2 (anti-CD3×anti-IL5R scDb comprising the humanized variable domain of clone-02) (bispecific antibody) DIQMTQSPSSLSASVGDRVTITCQASQNIYSNLAWYQQKPGKAPKLLIYRASTLASGVPSRFSGSGSGTDFTLTISSLQPEDFATYYCQSNYGINYYGAAFGQGTKLTVLGGGGGSEVQLVESGGGLVQPGGSLRLSCAASGFPLSAYAMIWVRQAPGKGLEWIGMIIRSGTVYYANWAKGRFTISRDNSKNTVYLQMNSLRAEDTAVYYCARRHYNADGYPIGIGDLWGQGTLVTVSSGGGGSGGGGSGGGGSGGGGSDIQMTQSPSSLSASVGDRVTITCQSSESVYSNNRLSWYQQKPGKAPKLLIYSASTLASGVPSRFSGSGSGTDFTLTISSLQPEDFATYYCQGEFSCSSVDCFSFGQGTKLTVLGGGGGSEVQLVESGGGLVQPGGSLRLSCAASGFSLSSYDMTWVRQAPGKGLEWIGIIYVSGSAYYASWAKGRFTISRDNSKNTVYLQMNSLRAEDTAVYYCARINYGLDLWGQGTLVTVSS

target: human CD3ε expressed on the cell surface of T cells (Jurkat clone E6-1; human CD8+ T cells) (human) (UniProt P07766); test: cell-based or functional assay
Sequence (P07766 23-207): as the sequence (P07766 23-207) above

Fold increase in CD69 expression [MFI normalized to neg. ctrl.], 1.25 µg/ml anti-CD3 IgG, cross-linked, Jurkat cells, 24 h	Fold increase in CD69 expression [MFI normalized to neg. ctrl.], 5 µg/ml anti-CD3 IgG, cross-linked, Jurkat cells, 24 h	Fold increase in CD69 expression [MFI normalized to neg. ctrl.], 20 µg/ml anti-CD3 IgG, cross-linked, Jurkat cells, 24 h	Molecule
1.6 fold	2.2 fold	3 fold	TR66 (antibody)
1.8 fold	2.5 fold	3.1 fold	OKT3 (antibody)

target: T1, human CD3ε expressed on the cell …; test: cell-based or functional assay; remark: another data set of the same source

Potency to lyse target cells [EC50] (CHO-IL5R cells, human CD8+ T cells, 88 h)	Potency to stimulate IL-2 secretion by T cells [EC50] (CD8+ T cells with CHO-IL5R cells, 16 h)	Molecule
0.1 nM	0.96 nM	Construct 1 (anti-CD3×anti-IL5R scDb comprising the humanized variable domain of clone-06) (bispecific antibody) DIQMTQSPSSLSASVGDRVTITCQASQNIYSNLAWYQQKPGKAPKLLIYRASTLASGVPSRFSGSGSGTDFTLTISSLQPEDFATYYCQSNYGINYYGAAFGQGTKLTVLGGGGGSEVQLVESGGGLVQPGGSLRLSCAASGFPLSSYAMIWVRQAPGKGLEWIGMILRAGNIYYASWVKGRFTISRDNSKNTVYLQMNSLRAEDTAVYYCARRHYNREGYPIGIGDLWGQGTLVTVSSGGGGSGGGGSGGGGSGGGGSDIQMTQSPSSLSASVGDRVTITCQSSESVYNNKRLSWYQQKPGKAPKLLIYTASSLASGVPSRFSGSGSGTDFTLTISSLQPEDFATYYCQGEFTCSNADCFTFGQGTKLTVLGGGGGSEVQLVESGGGLVQPGGSLRLSCAASGFSLSSYDMTWVRQAPGKGLEWIGIIYVSGSAYYASWAKGRFTISRDNSKNTVYLQMNSLRAEDTAVYYCARINYGLDLWGQGTLVTVSS
–	5.67 nM	Construct 2 (anti-CD3×anti-IL5R scDb comprising the humanized variable domain of clone-02) (bispecific antibody) DIQMTQSPSSLSASVGDRVTITCQASQNIYSNLAWYQQKPGKAPKLLIYRASTLASGVPSRFSGSGSGTDFTLTISSLQPEDFATYYCQSNYGINYYGAAFGQGTKLTVLGGGGGSEVQLVESGGGLVQPGGSLRLSCAASGFPLSAYAMIWVRQAPGKGLEWIGMIIRSGTVYYANWAKGRFTISRDNSKNTVYLQMNSLRAEDTAVYYCARRHYNADGYPIGIGDLWGQGTLVTVSSGGGGSGGGGSGGGGSGGGGSDIQMTQSPSSLSASVGDRVTITCQSSESVYSNNRLSWYQQKPGKAPKLLIYSASTLASGVPSRFSGSGSGTDFTLTISSLQPEDFATYYCQGEFSCSSVDCFSFGQGTKLTVLGGGGGSEVQLVESGGGLVQPGGSLRLSCAASGFSLSSYDMTWVRQAPGKGLEWIGIIYVSGSAYYASWAKGRFTISRDNSKNTVYLQMNSLRAEDTAVYYCARINYGLDLWGQGTLVTVSS
